Reference: publication PMC8427231, “Mechanism of dimerization and structural features of human LI-cadherin” (The Journal of Biological Chemistry, 2021)

B1: human LI-cadherin EC1-4 [modified: N-glycans (four modelled on chain A, two on chain B of the crystal structure; sites not printed); N-glycans (four modelled on chain A, two on chain B of the crystal structure; sites not … (parent)
chain: QEGKFSGPLKPMTFSIYEGQEPSQIIFQFKANPPAVTFELTGETDNIFVIEREGLLYYNRALDRETRSTHNLQVAALDANGIIVEGPVPITIKVKDINDNRPTFLQSKYEGSVRQNSRPGKPFLYVNATDLDDPATPNGQLYYQIVIQLPMINNVMYFQINNKTGAISLTREGSQELNPAKNPSYNLVISVKDMGGQSENSFSDTTSVDIIVTENIWKAPKPVEMVENSTDPHPIKITQVRWNDPGAQYSLVDKEKLPRFPFSIDQEGDIYVTQPLDREEKDAYVFYAVAKDEYGKPLSYPLEIHVKVKDINDNPPTCPSPVTVFEVQENERLGNSIGTLTAHDRDEENTANSFLNYRIVEQTPKLPMDGLFLIQTYAGMLQLAKQSLKKQDTPQYNLTIEVSDKDFKTLCFVQINVID

Variants of: B1
Assay: SEC-MALS
Conditions: with itself; injected at 50 μM; read off a plot

Variant	screen value
chain 1 F202A	58 kDa

Same assay, conditions: with itself; injected at 100 μM; read off a plot

Variant	screen value
chain 1 F202A	49.5 kDa
chain 1 V188A	51.5 kDa
chain 1 Q382A	52.7 kDa
chain 1 Y377A	53.6 kDa
chain 1 F354A	55.1 kDa
chain 1 L149A	51.1 kDa
chain 1 N200A	52.2 kDa
chain 1 N154A	53.1 kDa
chain 1 N349A	52.4 kDa
chain 1 I147A	50.5 kDa
chain 1 L333A	54.8 kDa
